Experimental data reported in US11814435B2, “Therapeutic antibodies and their uses” (PFIZER INC., priority 2015, dated 2023).

Legend:
hBCMA (human BCMA) = target: T1, hBCMA (human BCMA) (Homo sapiens, UniProt Q02223); assay: Kinetics and affinity of hBCMA/human IgG interactions by SPR (Bio-Rad Proteon XPR36); assay type: binding; settings: human BCMA, 37° C.
T1 sequence (Q02223 1-184): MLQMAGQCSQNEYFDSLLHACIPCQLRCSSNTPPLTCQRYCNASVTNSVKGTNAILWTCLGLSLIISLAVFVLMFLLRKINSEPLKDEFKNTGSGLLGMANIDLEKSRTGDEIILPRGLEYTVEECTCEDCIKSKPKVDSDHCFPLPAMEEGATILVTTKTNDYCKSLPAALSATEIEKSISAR
How it was run: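 Kinetics and affinity came from double-referenced sensorgrams fit to a 1:1 Langmuir model with mass transport. The fits used a five-step kinetic titration of BCMA (0.08-50 nM, 2 min each, then 2 h dissociation) over immobilized IgGs, run at 37° C. or 25° C. in HBS-T+ pH 7.4 containing 1 mg/mL BSA.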

Cyno BCMA = assay: Kinetics and affinity of cyno BCMA/human IgG interactions by SPR (Bio-Rad Proteon XPR36); assay type: binding, cynomolgus; settings: 37° C.

| Molecule | ka Human (hBCMA (human BCMA)) [M⁻¹ s⁻¹] | kd Human (hBCMA (human BCMA)) [s⁻¹] | ka Cyno (Cyno BCMA) [M⁻¹ s⁻¹] | kd Cyno (Cyno BCMA) [s⁻¹] |
| --- | --- | --- | --- | --- |
| C01_Rd4_6 nM_C09: anti-BCMA antibody (antibody, V domains shown) VH: EVQLLESGGGLVQPGGSLRLSCAASGFTFSSYPMSWVRQAPGKGLEWVSATVGSGGSIGYADSVKGRFTISRDNSKNTLYLQMNSLRAEDTAVYYCARYWPMDSWGQGTLVTVSS VL: EIVLTQSPGTLSLSPGERATLSCACSQSVSSTYLAWYQQKPGQAPRLLIYDASSRAPGIPDRFSGSGSGTDFTLTISRLEPEDFAVYYCQQYSAWPLTFGQGTKVEIK | 1.58e+07 | 0.0128 | 3.73e+06 | 0.00868 |
| COMBO_Rd4_0.6 nM_C02: anti-BCMA antibody (antibody, V domains shown) VH: EVQLLESGGGLVQPGGSLRLSCAASGFTFSSYPMSWVRQAPGKGLEWVSAIGGSGGSLPYADSVKGRFTISRDNSKNTLYLQMNSLRAEDTAVYYCARYWPMDSWGQGTLVTVSS VL: EIVLTQSPGTLSLSPGERATLSCRASIAVSSTYLAWYQQKPGQAPRLLMYDASIRATGIPDRFSGSGSGTDFTLTISRLEPEDFAVYYCQQYMVWPLTFGQGTKVEIK | 8.57e+06 | 0.000185 | 3.01e+06 | 0.000494 |
| COMBO_Rd4_6 nM_C08: anti-BCMA antibody (antibody, V domains shown) VH: EVQLLESGGGLVQPGGSLRLSCAASGFTFSSYPMSWVRQAPGKGLEWVSAIGGSGTWTYYADSVKGRFTISRDNSKNTLYLQMNSLRAEDTAVYYCARYWPMDSWGQGTLVTVSS VL: EIVLTQSPGTLSLSPGERATLSCRASQSVSSSYLAWYQQKPGQAPRLLMYDASIRATGIPDRFSGSGSGTDFTLTISRLEPEDFAVYYCQQYQKWPLTFGQGTKVEIK | 8.99e+06 | 0.000169 | 3.06e+06 | 0.000428 |
| C01_Rd4_0.6 nM_C06: anti-BCMA antibody (antibody, V domains shown) VH: EVQLLESGGGLVQPGGSLRLSCAASGFTFSSYPMSWVRQAPGKGLEWVSAIGGSGGSLPYADSVKGRFTISRDNSKNTLYLQMNSLRAEDTAVYYCARYWPMDSWGQGTLVTVSS VL: EIVLTQSPGTLSLSPGERATLSCRASEAVPSTYLAWYQQKPGQAPRLLIYDASSRAPGIPDRFSGSGSGTDFTLTISRLEPEDFAVYYCQQYSAFPLTFGQGTKVEIK | 1.82e+07 | 0.0154 | 6.22e+06 | 0.0121 |
| COMBO_Rd4_0.6 nM_C21: anti-BCMA antibody (antibody, V domains shown) VH: EVQLLESGGGLVQPGGSLRLSCAASGFTFSSYPMSWVRQAPGKGLEWVSAIGGSGGSLPYADSVKGRFTISRDNSKNTLYLQMNSLRAEDTAVYYCARYWPMDSWGQGTLVTVSS VL: EIVLTQSPGTLSLSPGERATLSCRASQSVSSSYLAWYQQKPGQAPRLLMYDASIRATGIPDRFSGSGSGTDFTLTISRLEPEDFAVYYCQQYQSWPLTFGQGTKVEIK | 1.34e+07 | 0.000115 | 3.63e+06 | 0.000304 |
| COMBO_Rd4_0.6 nM_C19: anti-BCMA antibody (antibody, V domains shown) VH: EVQLLESGGGLVQPGGSLRLSCAASGFTFSSYPMSWVRQAPGKGLEWVSAIGGSGGSLPYADSVKGRFTISRDNSKNTLYLQMNSLRAEDTAVYYCARYWPMDSWGQGTLVTVSS VL: EIVLTQSPGTLSLSPGERATLSCRASQSVSAVYLAWYQQKPGQAPRLLMYDASIRATGIPDRFSGSGSGTDFTLTISRLEPEDFAVYYCQQYRAWPLTFGQGTKVEIK | 7.86e+06 | 0.000155 | 2.92e+06 | 0.000979 |
| COMBO_Rd4_6 nM_C10: anti-BCMA antibody (antibody, V domains shown) VH: EVQLLESGGGLVQPGGSLRLSCAASGFTFSSYPMSWVRQAPGKGLEWVSAIGGSGGSIHYADSVKGRFTISRDNSKNTLYLQMNSLRAEDTAVYYCARYWPMDSWGQGTLVTVSS VL: EIVLTQSPGTLSLSPGERATLSCRASQSVSSSYWGWYQQKPGQAPRLLMYDASIRATGIPDRFSGSGSGTDFTLTISRLEPEDFAVYYCQQYQCWPLTFGQGTKVEIK | 5.47e+06 | 9.72e-05 | 1.52e+06 | 0.00016 |
| C01_Rd4_0.6 nM_C03: anti-BCMA antibody (antibody, V domains shown) VH: EVQLLESGGGLVQPGGSLRLSCAASGFTFSSYPMSWVRQAPGKGLEWVSAIGGSGGSLPYADSVKGRFTISRDNSKNTLYLQMNSLRAEDTAVYYCARYWPMDSWGQGTLVTVSS VL: EIVLTQSPGTLSLSPGERATLSCRASCDVSSTYLAWYQQKPGQAPRLLIYDASSRAPGIPDRFSGSGSGTDFTLTISRLEPEDFAVYYCQQYMRSPLTFGQGTKVEIK | 1.55e+07 | 0.015 | 4.72e+06 | 0.0119 |
| COMBO_Rd4_6 nM_C11: anti-BCMA antibody (antibody, V domains shown) VH: EVQLLESGGGLVQPGGSLRLSCAASGFTFSSYPMSWVRQAPGKGLEWVSAIGGSGGSLGYADSVKGRFTISRDNSKNTLYLQMNSLRAEDTAVYYCARYWPMDSWGQGTLVTVSS VL: EIVLTQSPGTLSLSPGERATLSCRASQSVSPLYLAWYQQKPGQAPRLLMYDASIRATGIPDRFSGSGSGTDFTLTISRLEPEDFAVYYCQQYKAWPLTFGQGTKVEIK | 6.74e+06 | 0.000124 | 2.64e+06 | 0.000412 |
| COMBO_Rd4_6 nM_C21: anti-BCMA antibody (antibody, V domains shown) VH: EVQLLESGGGLVQPGGSLRLSCAASGFTFSSYPMSWVRQAPGKGLEWVSAIGGSGGSLPYADSVKGRFTISRDNSKNTLYLQMNSLRAEDTAVYYCARYWPMDSWGQGTLVTVSS VL: EIVLTQSPGTLSLSPGERATLSCRASQSVSAAYLAWYQQKPGQAPRLLMYDASIRATGIPDRFSGSGSGTDFTLTISRLEPEDFAVYYCQQYMCWPLTFGQGTKVEIK | 1.17e+07 | 7.34e-05 | 3.17e+06 | 0.000248 |
| C01_Rd4_6 nM_C04: anti-BCMA antibody (antibody, V domains shown) VH: EVQLLESGGGLVQPGGSLRLSCAASGFTFSSYPMSWVRQAPGKGLEWVSAIGGSGGSLPYADSVKGRFTISRDNSKNTLYLQMNSLRAEDTAVYYCARYWPMDSWGQGTLVTVSS VL: EIVLTQSPGTLSLSPGERATLSCCSSQSVSSTYLAWYQQKPGQAPRLLIYDASSRAPGIPDRFSGSGSGTDFTLTISRLEPEDFAVYYCQQYSAFPLTFGQGTKVEIK | 2.33e+07 | 0.0497 | 6.34e+06 | 0.0327 |
| COMBO_Rd4_6 nM_C25: anti-BCMA antibody (antibody, V domains shown) VH: EVQLLESGGGLVQPGGSLRLSCAASGFTFSSYPMSWVRQAPGKGLEWVSAIGGSGGSTYYADSVKGRFTISRDNSKNTLYLQMNSLRAEDTAVYYCARYWPMDPWGQGTLVTVSS VL: EIVLTQSPGTLSLSPGERATLSCRASQSVSSPYLAWYQQKPGQAPRLLMYDASIRATGIPDRFSGSGSGTDFTLTISRLEPEDFAVYYCQQYQSWPLTFGQGTKVEIK | 7.98e+06 | 0.000113 | 2.85e+06 | 0.000226 |
| COMBO_Rd4_0.6 nM_C04: anti-BCMA antibody (antibody, V domains shown) VH: EVQLLESGGGLVQPGGSLRLSCAASGFTFSSYPMSWVRQAPGKGLEWVSAHIGSGGSTYYADSVKGRFTISRDNSKNTLYLQMNSLRAEDTAVYYCARYWPMDSWGQGTLVTVSS VL: EIVLTQSPGTLSLSPGERATLSCRASQSVSSTYLAWYQQKPGQAPRLLMYDASIRATGIPDRFSGSGSGTDFTLTISRLEPEDFAVYYCQQYQSWPLTFGQGTKVEIK | 1.07e+07 | 0.000158 | 3.52e+06 | 0.000137 |
| COMBO_Rd4_6 nM_C09: anti-BCMA antibody (antibody, V domains shown) VH: EVQLLESGGGLVQPGGSLRLSCAASGFTFSSYPMSWVRQAPGKGLEWVSAIFASGGSTYYADSVKGRFTISRDNSKNTLYLQMNSLRAEDTAVYYCARYWPMDSWGQGTLVTVSS VL: EIVLTQSPGTLSLSPGERATLSCRASQSVSAQYLAWYQQKPGQAPRLLMYDASIRATGIPDRFSGSGSGTDFTLTISRLEPEDFAVYYCQQYQAWPLTFGQGTKVEIK | 8.85e+06 | 0.000143 | 2.37e+06 | 0.000318 |
| COMBO_Rd4_0.6 nM_C20: anti-BCMA antibody (antibody, V domains shown) VH: EVQLLESGGGLVQPGGSLRLSCAASGFTFSSYPMSWVRQAPGKGLEWVSAIGGSGGSLPYADSVKGRFTISRDNSKNTLYLQMNSLRAEDTAVYYCARYWPMDSWGQGTLVTVSS VL: EIVLTQSPGTLSLSPGERATLSCRASQSVSYLYLAWYQQKPGQAPRLLMYDASIRATGIPDRFSGSGSGTDFTLTISRLEPEDFAVYYCQQYMEWPLTFGQGTKVEIK | 7.65e+06 | 0.000146 | 3.09e+06 | 0.000284 |
